# B1: ACS5-A (Pyrococcus furiosus DSM 3638) (protein)
# chain 1: MINNLDIKEQLRSFFDPKAVAIIGATNKKGKVGNVIFENFKRNKERGIFKGNIYPVNPKLDEIDGYKVYHSVEELPDDTDLAVVAIPAPAVPETMRKIAEKGIKAVVIITGGFGELGEEGKRMEQEILEIARAHGIRVIGPNCVGVYVPDTGVDTVFLPEEKMDRPKSGPIAFVSQSGAFAAAMLDWAAMAGIGIGKMVSYGNKIDVDDADLMEYFAQDEQIKVMTFYIEGVKDGRRFMEVAKRVTKIKPIIALKSGRTEYGAKAASSHTGSLAGQDVIYDAVFKQTGIIRAEDFEHMFDLAKAFAKCKLPKGDRIGIITDGGGAGVMASDAVAKFGLKLAELSEETLRFLREKFPPHAVVGNPTDVVGDTDAERYRLALEAFTKDPNVDAILVIVLFQVPLLDEEEVIEIIADYAKKSDKPIVAVSMGGYKTDRYAKMLEEKGVPVYPTPERGVRALAGLVRYAEYLRKMGE
# chain 2: MKGEALKIIEEVLAQGRTAMVEYEAKQVLKAYGLPVPEEKLAKTLDEALKYAEEIGYPVAMKLMSPQILHKSDAKVVMLNIKSPEELKKKWEEIHENARKYRPDAEIFGVLIAPMLKPGREVIIGVTEDPQFGHAIMFGLGGIFVEILKDVTFRIIPITEKDARKMITEIKAYPILAGARGEEPADIEAIVDMLLKVSKLVDDLKDYIKEMDLNPVFVYRKGEGAVVVDARIILKG
# notes: alpha (pET24a) and beta-A (pET21b) coexpressed in E. coli BL21(DE3) pRIL, untagged, heat-treated and desalted; alpha2beta2 ~140 kDa; The same primer pair is printed for PF1838 and PF1837 (probable misprint)
# B2: ACS1-A (Pyrococcus furiosus DSM 3638) (protein)
# chain 1: MSLEALFNPKSVAVIGASAKPGKIGYAIMKNLIEYGYEGKIYPVNIKGGEIEINGRKFKVYKSVLEIPDEVDMAVIVVPAKFVPQVLEECGQKGVKVVPIISSGFGELGEEGKKVEQQLVETARKYGMRILGPNIFGVVYTPAKLNATFGPTDVLPGPLALISQSGALGIALMGWTILEKIGLSAVVSVGNKADIDDADLLEFFKDDENTRAILIYMEGVKDGRRFMEVAKEVSKKKPIIVIKAGRSERGAKAAASHTGSLAGSDKVYSAAFKQSGVLRAYTIGEAFDWARALSNLPEPQGDNVVIITNGGGIGVMATDAAEEEGLHLYDNLEELKIFANHMPPFGSYKNPVDLTGMADGKSYEGAIRDALAHPEMHSIAVLYCQTAVLDPRELAEIVIREYNESGRKKPLVVAIVGGIEAKEAIDMLNENGIPAYPEPERAIKALSALYKWSKWKAKHKEK
# chain 2: B1 chain 2
# notes: alpha (pET24a) and beta-A (pET21b) coexpressed in E. coli BL21(DE3) pRIL, untagged (stop codons in primers), heat-treated and desalted; alpha2beta2 ~140 kDa; Printed PF1837 primers are identical to those of PF1838 (probable misprint)
# B3: ACS2-A (Pyrococcus furiosus DSM 3638) (protein)
# chain 1: MLDYFFNPRGIAVIGASNDPKKLGYEVFKNLKEYQGGKVYPVNVREEEVQGVKAYKSVKEIPGEVDLAIIVVPKKFVKQTLIECGEKGVKGVVIITAGFGETGEEGKREEKELVEIAHKYGMRIIGPNCVGIMNTHANLNATFITVAKKGNVAFISQSGALGAGIVYKTIKEDIGFSKFISVGNMADLDFADLMEYLADTQEDKAIALYIEGIKDGRRFIEVAKKVTKKKPVIALKAGKSESGSRAAASHTGSLAGSWKIYEAAFKQSGVLVANTIDEMLSMARAFTQPLPKGNRVAIMTNAGGPGVLTADEIDKRGLKLANLEEKTIEELRSFLPPMAAVKNPVDMIASARGEDYYRTAKLLLQDPNVDILIAICVVPTFAGMTPTEHAEGIIRAVKEVNNGKPVLALFMAGYVSEKAKELLEKNGIPTYERPEDVAAAAYALVQQAKNVGGGVNG
# chain 2: B1 chain 2
# notes: alpha (pET24a) and beta-A (pET21b) coexpressed in E. coli BL21(DE3) pRIL, untagged, heat-treated and desalted; alpha2beta2 ~140 kDa; Printed PF1837 primers identical to PF1838 (probable misprint)
# B4: ACS3-A (Pyrococcus furiosus DSM 3638) (protein)
# chain 1: MTVNLDFLFYPKSVAVIGASATPGKVGNAIMKSLAANFNGKVYPVNVKEGEIEINGKKFKVYRSIKEIPDEVDVAVIAVPAKFVPDVIDECGEKGVKGAIVISAGFKEAGRADLEEELVKRARKWGIRVVGPNCLGVTNLENGFDCNFNPPERQARPKFGPIAFMSQSGAFGAAILDWAARHEVGMSKFISLGNMADLDESDFMLYLKDDPKTKVITAYIEGVKDGRKFFNAAKETTKVKPVIILKAGRTEAGAKAAASHTGSLAGSYKIYQAAFEQTGVLAAKSMRQLFNYAKALAMQSPAKGDRVAIVTNGGGAGVMMSDGLLEAGLKLAEFTEETKEKFRKAIEEGLLPEHMSYKNPVDVIGDAPSSRYETAIRYVLEDPNVDIVVVIALFQSPALDEGIVDVMERVKEYGKPIVFVAPGGEYPERMARKIEEKGIPVFETVEDGVDAVYALIKYGKYLAEL
# chain 2: B1 chain 2
# notes: as for B3
# B5: ACS4-A (Pyrococcus furiosus DSM 3638) (protein)
# chain 1: MRYFFYPNSVAIFGSFREGAIAREILRNIVEGGFEGKIIPVNPKGGEVEVAGKKFNIKEKLDEPVDVSIIAIPAKLVPELIRGLKGLTKGAVVISAGFSEVGNVELEKELIKAAKEAGIRVIGPNCAGIFGVHAKFYGSFEVRVNPGGLALISQSGAFGGAALAMGNEEGIGFSAFVSYGNAADLDESDFLRFFADDENTRVIGLYIEGVKDGRKFLDALRYAASKKPVIILKAGKSRAGARAAASHTGSLAGSYEIYRAAFRQAGAIEVEEMEELFDAAKAFEMYERAGRRVAIITNSGGPGVLATDKLERLGLEIAKLTEETVEELRSFLPPQCSVKNPVDLIADADYERYKRAIEVVCRDENVDAILVICVPPIFIPSEEIARAVVEANCDKPIIVNFMAGELVREGIKILESKKIKNFPTPERAAKALYWLSLRSSSE
# chain 2: B1 chain 2
# notes: as for B3
# How the values were obtained:
# ACS3-G = molecular target: T1, ACS3-G (Pyrococcus furiosus, UniProt E7FHP1+Q8U461); conditions: reverse reaction; 20 mM acid, 1 mM ATP or GTP, 0.5 mM CoA, 2 mM MgCl2, pH 7.0, 80°C
# T1 construct: gene PF0233
# ACS2-G = molecular target: T2, ACS2-G (Pyrococcus furiosus, UniProt E7FHP1+Q8U3D6); conditions: reverse reaction; 20 mM acid, 1 mM ATP or GTP, 0.5 mM CoA, 2 mM MgCl2, pH 7.0, 80°C
# T2 construct: gene acdAII
# ACS4-G = molecular target: T3, ACS4-G (Pyrococcus furiosus, UniProt E7FHP1+Q8U1W9); conditions: reverse reaction; 20 mM acid, 1 mM ATP or GTP, 0.5 mM CoA, 2 mM MgCl2, pH 7.0, 80°C
# T3 construct: gene PF1085
# ACS5-G = molecular target: T4, ACS5-G (Pyrococcus furiosus, UniProt E7FHP1+Q8TZY7); conditions: reverse reaction; 20 mM acid, 1 mM ATP or GTP, 0.5 mM CoA, 2 mM MgCl2, pH 7.0, 80°C
# T4 construct: gene PF1838
# [1] = substrate: CC(=O)SCCNC(=O)CCNC(=O)[C@H](O)C(C)(C)COP(=O)(O)OP(=O)(O)OC[C@H]1O[C@@H](n2cnc3c(N)ncnc32)[C@H](O)[C@@H]1OP(=O)(O)O; assay: DTNB assay of released CoASH, 96-well; assay type: biochemical, Pyrococcus furiosus; conditions: forward reaction, 2 mM ADP, 10 mM K2HPO4, 2 mM MgCl2, pH 7.0, 80°C
# From the text: (§1) DTNB assay of released CoASH, 96-well on ACS5-A
# [2] = substrate: CC(C)C(=O)SCCNC(=O)CCNC(=O)[C@H](O)C(C)(C)COP(=O)(O)OP(=O)(O)OC[C@H]1O[C@@H](n2cnc3c(N)ncnc32)[C@H](O)[C@@H]1OP(=O)(O)O; assay: DTNB assay of released CoASH, 96-well; assay type: biochemical, Pyrococcus furiosus; conditions: forward reaction, 2 mM ADP, 10 mM K2HPO4, 2 mM MgCl2, pH 7.0, 80°C
# From the text: as §1
# [3] = substrate: CC(C)CC(=O)SCCNC(=O)CCNC(=O)[C@H](O)C(C)(C)COP(=O)(O)OP(=O)(O)OC[C@H]1O[C@@H](n2cnc3c(N)ncnc32)[C@H](O)[C@@H]1OP(=O)(O)O; assay: DTNB assay of released CoASH, 96-well; assay type: biochemical, Pyrococcus furiosus; conditions: forward reaction, 2 mM ADP, 10 mM K2HPO4, 2 mM MgCl2, pH 7.0, 80°C
# From the text: as §1
# [4] = substrate: CC(=O)SCCNC(=O)CCNC(=O)[C@H](O)C(C)(C)COP(=O)(O)OP(=O)(O)OC[C@H]1O[C@@H](n2cnc3c(N)ncnc32)[C@H](O)[C@@H]1OP(=O)(O)O; assay: DTNB assay of released CoASH, 96-well; assay type: biochemical, Pyrococcus furiosus; conditions: forward reaction, 2 mM ADP, 10 mM K2HPO4, 2 mM MgCl2, pH 7.0, 80°C; remark: listed apart in the source
# From the text: DTNB assay of released CoASH, 96-well on ACS1-A
# [5] = substrate: Nc1nc2c(ncn2[C@@H]2O[C@H](COP(=O)(O)OP(=O)(O)OP(=O)(O)O)[C@@H](O)[C@H]2O)c(=O)[nH]1; assay: colorimetric phosphate release, 96-well; assay type: biochemical, Pyrococcus furiosus; conditions: reverse reaction (acid + CoA), 20 mM acid substrate, 0.5 mM CoA, 2 mM MgCl2, pH 7.0, 80°C
# [6] = substrate: Nc1ncnc2c1ncn2[C@@H]1O[C@H](COP(=O)(O)OP(=O)(O)OP(=O)(O)O)[C@@H](O)[C@H]1O; assay: colorimetric phosphate release, 96-well; assay type: biochemical, Pyrococcus furiosus; conditions: reverse reaction (acid + CoA), 20 mM acid substrate, 0.5 mM CoA, 2 mM MgCl2, pH 7.0, 80°C
# [7] = substrate: CC(=O)SCCNC(=O)CCNC(=O)[C@H](O)C(C)(C)COP(=O)(O)OP(=O)(O)OC[C@H]1O[C@@H](n2cnc3c(N)ncnc32)[C@H](O)[C@@H]1OP(=O)(O)O; assay: DTNB assay of released CoASH, 96-well; assay type: biochemical, Pyrococcus furiosus; conditions: forward reaction, 2 mM ADP, 10 mM K2HPO4, 2 mM MgCl2, pH 7.0, 80°C; remark: listed apart in the source
# From the text: (§2) DTNB assay of released CoASH, 96-well on ACS2-A
# [8] = substrate: CC(C)(COP(=O)(O)OP(=O)(O)OC[C@H]1O[C@@H](n2cnc3c(N)ncnc32)[C@H](O)[C@@H]1OP(=O)(O)O)[C@@H](O)C(=O)NCCC(=O)NCCSC(=O)Cc1ccccc1; assay: DTNB assay of released CoASH, 96-well; assay type: biochemical, Pyrococcus furiosus; conditions: forward reaction, 2 mM ADP, 10 mM K2HPO4, 2 mM MgCl2, pH 7.0, 80°C
# From the text: as §2
# [9] = substrate: CC(C)CC(=O)SCCNC(=O)CCNC(=O)[C@H](O)C(C)(C)COP(=O)(O)OP(=O)(O)OC[C@H]1O[C@@H](n2cnc3c(N)ncnc32)[C@H](O)[C@@H]1OP(=O)(O)O; assay: DTNB assay of released CoASH, 96-well; assay type: biochemical, Pyrococcus furiosus; conditions: forward reaction, 2 mM ADP, 10 mM K2HPO4, 2 mM MgCl2, pH 7.0, 80°C; remark: listed apart in the source
# From the text: as §2
# [10] = substrate: CC(=O)SCCNC(=O)CCNC(=O)[C@H](O)C(C)(C)COP(=O)(O)OP(=O)(O)OC[C@H]1O[C@@H](n2cnc3c(N)ncnc32)[C@H](O)[C@@H]1OP(=O)(O)O; assay: DTNB assay of released CoASH, 96-well; assay type: biochemical, Pyrococcus furiosus; conditions: forward reaction, 2 mM ADP, 10 mM K2HPO4, 2 mM MgCl2, pH 7.0, 80°C; remark: listed apart in the source
# From the text: DTNB assay of released CoASH, 96-well on ACS3-A
# [11] = substrate: CC(=O)SCCNC(=O)CCNC(=O)[C@H](O)C(C)(C)COP(=O)(O)OP(=O)(O)OC[C@H]1O[C@@H](n2cnc3c(N)ncnc32)[C@H](O)[C@@H]1OP(=O)(O)O; assay: DTNB assay of released CoASH, 96-well; assay type: biochemical, Pyrococcus furiosus; conditions: forward reaction, 2 mM ADP, 10 mM K2HPO4, 2 mM MgCl2, pH 7.0, 80°C; remark: listed apart in the source
# From the text: DTNB assay of released CoASH, 96-well on ACS4-A
# T4 sequence (E7FHP1 whole entry, one chain of several): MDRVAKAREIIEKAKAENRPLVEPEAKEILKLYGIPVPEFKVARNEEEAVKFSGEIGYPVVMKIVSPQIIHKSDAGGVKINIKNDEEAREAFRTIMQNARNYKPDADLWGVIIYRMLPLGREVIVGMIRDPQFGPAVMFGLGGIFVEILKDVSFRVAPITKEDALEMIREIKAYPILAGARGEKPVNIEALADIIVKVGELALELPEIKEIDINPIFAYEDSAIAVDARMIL
# T1 sequence (E7FHP1 whole entry, one chain of several): as above
# T3 sequence (E7FHP1 whole entry, one chain of several): as above
# T2 sequence (E7FHP1 whole entry, one chain of several): as above
molecule,measurement,setting,value
O=C(O)CCC(=O)O [succinate],relative activity,ACS3-G,The only isoenzyme that showed activity with succinate was ACS3
CSCCC(=O)O [3-methylthiopropionate],relative activity,ACS2-G,"Surprisingly, ACS2 was also active with 3-methylthiopropionate"
O=C(O)Cc1c[nH]cn1 [imidazole 4-acetate],relative activity,ACS4-G,ACS4 was the only isoenzyme that shows significant activity with imidazole 4-acetate
C[C@H](O)C(=O)O [lactate],relative activity,ACS5-G,ACS5 is the only enzyme that has significant activity with lactate
B1,Km,[1],620 ± 1.0 µM
same,kcat/Km,[1],112000 M⁻¹ s⁻¹
same,Km,[2],2730 ± 1080 µM
same,kcat/Km,[2],83000 M⁻¹ s⁻¹
same,Km,[3],820 ± 407 µM
same,kcat/Km,[3],120000 M⁻¹ s⁻¹
B2,Km,[4],137 ± 91 µM
same,kcat/Km,[4],140000 M⁻¹ s⁻¹
same,Km,[5],223 ± 58 µM
same,kcat/Km,[5],10000 M⁻¹ s⁻¹
same,Km,[6],132 ± 19 µM
same,kcat/Km,[6],140000 M⁻¹ s⁻¹
B3,Km,[7],350 ± 2 µM
same,kcat/Km,[7],114000 M⁻¹ s⁻¹
same,Km,[8],3320 ± 1320 µM
same,kcat/Km,[8],150000 M⁻¹ s⁻¹
same,Km,[9],466 ± 119 µM
same,kcat/Km,[9],109000 M⁻¹ s⁻¹
B4,Km,[10],474 ± 165 µM
same,kcat/Km,[10],12000 M⁻¹ s⁻¹
B5,Km,[11],242 ± 46 µM
same,kcat/Km,[11],119000 M⁻¹ s⁻¹

# Reference: article PMC3942289, “Characterization of Ten Heterotetrameric NDP-Dependent Acyl-CoA Synthetases of the Hyperthermophilic Archaeon Pyrococcus furiosus” (Archaea, 2014)
